# Molecular target: FGF receptor/BKL complex on HEK293 cells overexpressing human beta-klotho (BKL) (human) (UniProt Q86Z14)
# Assay: cell-based or functional assay
# FGF receptor/BKL complex on HEK293 cells overexpressing human beta-klotho (BKL) (human), sequence (Q86Z14 whole entry, one chain of several): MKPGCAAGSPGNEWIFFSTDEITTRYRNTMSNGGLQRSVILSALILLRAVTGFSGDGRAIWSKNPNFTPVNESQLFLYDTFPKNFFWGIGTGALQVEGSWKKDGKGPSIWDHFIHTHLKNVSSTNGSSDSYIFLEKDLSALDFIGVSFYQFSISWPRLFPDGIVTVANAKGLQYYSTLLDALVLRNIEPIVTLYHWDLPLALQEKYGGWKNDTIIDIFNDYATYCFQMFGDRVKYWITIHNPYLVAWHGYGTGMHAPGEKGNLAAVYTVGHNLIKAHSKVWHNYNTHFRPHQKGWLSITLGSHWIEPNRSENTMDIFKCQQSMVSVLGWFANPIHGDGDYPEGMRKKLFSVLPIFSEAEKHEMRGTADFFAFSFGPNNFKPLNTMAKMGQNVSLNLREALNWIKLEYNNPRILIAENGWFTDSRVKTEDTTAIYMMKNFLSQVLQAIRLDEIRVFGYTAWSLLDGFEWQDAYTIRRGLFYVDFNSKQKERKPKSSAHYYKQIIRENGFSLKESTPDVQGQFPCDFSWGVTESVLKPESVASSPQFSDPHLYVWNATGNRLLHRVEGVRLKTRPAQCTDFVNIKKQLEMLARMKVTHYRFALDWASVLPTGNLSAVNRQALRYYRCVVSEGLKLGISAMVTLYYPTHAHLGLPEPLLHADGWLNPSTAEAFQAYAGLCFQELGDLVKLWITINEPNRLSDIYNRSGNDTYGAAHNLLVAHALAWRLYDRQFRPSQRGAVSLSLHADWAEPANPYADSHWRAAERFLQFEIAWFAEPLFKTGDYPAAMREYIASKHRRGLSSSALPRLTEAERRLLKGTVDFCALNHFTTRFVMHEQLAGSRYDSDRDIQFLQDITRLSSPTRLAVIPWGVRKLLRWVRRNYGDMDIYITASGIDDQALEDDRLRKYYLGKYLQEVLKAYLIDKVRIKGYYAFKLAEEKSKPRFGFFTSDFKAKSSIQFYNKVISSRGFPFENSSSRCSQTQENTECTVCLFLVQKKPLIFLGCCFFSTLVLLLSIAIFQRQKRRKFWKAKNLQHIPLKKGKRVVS
# 4-[10-[[(1S)-4-[2-[2-[2-[2-[2-[2-[[(1S)-5-acetamido-1-carboxy-pentyl]amino]-2-oxo-ethoxy]ethoxy]ethylamino]-2-oxo-ethoxy]ethoxy]ethylamino]-1-carboxy-4-oxo-butyl]amino]-10-oxo-decoxy]benzoic acid]-Ala, sequence (Q9NSA1 other isoform, or with tags, fused parts or gaps limits assumed): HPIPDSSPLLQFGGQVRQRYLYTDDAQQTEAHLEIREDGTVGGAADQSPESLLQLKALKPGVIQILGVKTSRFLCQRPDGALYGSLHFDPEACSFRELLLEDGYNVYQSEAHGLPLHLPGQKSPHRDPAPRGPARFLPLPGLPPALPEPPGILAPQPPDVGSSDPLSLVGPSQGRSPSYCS
# Ala[Gln121,Leu168,Cys177]FGF21, sequence (Q9NSA1 other isoform, or with tags, fused parts or gaps limits assumed): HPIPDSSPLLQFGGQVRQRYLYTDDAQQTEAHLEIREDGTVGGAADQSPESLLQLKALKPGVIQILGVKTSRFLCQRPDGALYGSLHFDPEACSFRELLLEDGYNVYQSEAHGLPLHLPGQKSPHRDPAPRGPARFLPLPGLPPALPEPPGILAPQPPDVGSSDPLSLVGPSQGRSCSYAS
# Ala[Gln121,Leu168,Cys174]FGF21, sequence (Q9NSA1 other isoform, or with tags, fused parts or gaps limits assumed): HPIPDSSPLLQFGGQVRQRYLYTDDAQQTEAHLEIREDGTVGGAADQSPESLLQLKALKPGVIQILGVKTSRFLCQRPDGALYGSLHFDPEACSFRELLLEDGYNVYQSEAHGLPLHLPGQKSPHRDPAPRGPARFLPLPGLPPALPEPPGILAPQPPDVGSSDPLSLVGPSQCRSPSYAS
# Ala[Gln121,Leu168,Cys170]FGF21, sequence (Q9NSA1 other isoform, or with tags, fused parts or gaps limits assumed): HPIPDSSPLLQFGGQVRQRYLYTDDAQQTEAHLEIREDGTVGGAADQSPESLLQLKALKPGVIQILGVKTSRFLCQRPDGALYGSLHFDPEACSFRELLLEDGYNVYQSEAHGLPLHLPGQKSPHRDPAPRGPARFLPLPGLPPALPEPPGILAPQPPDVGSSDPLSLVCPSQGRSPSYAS
# Ala[Gln121,Leu168,Cys173]FGF21, sequence (Q9NSA1 other isoform, or with tags, fused parts or gaps limits assumed): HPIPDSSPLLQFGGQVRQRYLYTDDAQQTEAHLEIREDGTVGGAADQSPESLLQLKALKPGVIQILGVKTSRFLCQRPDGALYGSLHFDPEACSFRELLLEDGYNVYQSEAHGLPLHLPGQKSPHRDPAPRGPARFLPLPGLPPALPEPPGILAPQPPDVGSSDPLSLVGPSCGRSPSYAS
# Ala[Gln121,Leu168,Cys175]FGF21, sequence (Q9NSA1 other isoform, or with tags, fused parts or gaps limits assumed): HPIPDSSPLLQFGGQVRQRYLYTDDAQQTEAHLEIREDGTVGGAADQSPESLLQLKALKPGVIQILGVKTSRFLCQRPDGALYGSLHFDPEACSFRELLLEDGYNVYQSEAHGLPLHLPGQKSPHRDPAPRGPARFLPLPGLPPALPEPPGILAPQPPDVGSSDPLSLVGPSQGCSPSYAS
# Ala[Gln121,Leu168,Cys169]FGF21, sequence (Q9NSA1 other isoform, or with tags, fused parts or gaps limits assumed): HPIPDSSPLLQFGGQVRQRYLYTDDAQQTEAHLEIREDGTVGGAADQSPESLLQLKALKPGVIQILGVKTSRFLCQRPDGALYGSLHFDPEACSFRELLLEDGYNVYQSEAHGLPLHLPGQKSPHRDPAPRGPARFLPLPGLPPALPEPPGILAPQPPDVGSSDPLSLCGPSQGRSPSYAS
# Ala[Gln121,Leu168,Cys172]FGF21, sequence (Q9NSA1 other isoform, or with tags, fused parts or gaps limits assumed): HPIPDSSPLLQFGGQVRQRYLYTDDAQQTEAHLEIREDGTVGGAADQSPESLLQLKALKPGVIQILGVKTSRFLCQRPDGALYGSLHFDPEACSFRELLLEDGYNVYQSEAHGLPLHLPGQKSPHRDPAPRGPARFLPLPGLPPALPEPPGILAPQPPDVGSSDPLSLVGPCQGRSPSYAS
Substance,"EC50 (0.1% HSA) (nM), pERK, HEK293/BKL cells [nM]","EC50 (nM), pERK, HEK293/BKL cells [nM]"
"4-[10-[[4-[2-[2-[2-[2-[2-[2-[[(1S)-5-acetamido-1-carboxy-pentyl]amino]-2-oxo-ethoxy]ethoxy]ethylamino]-2-oxo-ethoxy]ethoxy]ethylamino]-4-oxo-butyl]sulfonylamino]-10-oxo-decoxy]benzoic acid-Ala[Gln121,Leu168,Cys181]FGF21 (from UniProt Q9NSA1 29-208) (ligand)",132,24.7
"4-[10-[[4-[2-[2-[2-[2-[2-[2-[[(1S)-5-acetamido-1-carboxy-pentyl]amino]-2-oxo-ethoxy]ethoxy]ethylamino]-2-oxo-ethoxy]ethoxy]ethylamino]-4-oxo-butyl]sulfonylamino]-10-oxo-decoxy]benzoic acid]-Ala[Gln121,Leu168,Cys180]FGF21 (from UniProt Q9NSA1 29-209) (ligand)",4,3.2
"4-[10-[[(1S)-4-[2-[2-[2-[2-[2-[2-[[(1S)-5-acetamido-1-carboxy-pentyl]amino]-2-oxo-ethoxy]ethoxy]ethylamino]-2-oxo-ethoxy]ethoxy]ethylamino]-1-carboxy-4-oxo-butyl]amino]-10-oxo-decoxy]benzoic acid]-Ala[Gln121,Leu168,Cys180]FGF21 (from UniProt Q9NSA1 29-209) (ligand)",3,5
"4-[10-[[(1S)-4-[2-[2-[2-[2-[2-[2-[[(1S)-5-acetamido-1-carboxy-pentyl]amino]-2-oxo-ethoxy]ethoxy]ethylamino]-2-oxo-ethoxy]ethoxy]ethylamino]-1-carboxy-4-oxo-butyl]amino]-10-oxo-decoxy]benzoic acid]-Ala[Gln121,Leu168,Cys181]FGF21 (from UniProt Q9NSA1 29-208) (ligand)",138,26.4
"12-[[4-[[(1S)-4-[2-[2-[2-[2-[2-[2-(2-acetamidoethylamino)-2-oxo-ethoxy]ethoxy]ethylamino]-2-oxo-ethoxy]ethoxy]ethylamino]-1-carboxy-4-oxo-butyl]carbamoyl]cyclohexyl]methylamino]-12-oxo-dodecanoic acid-Ala[Gln121,Leu168,Cys180]FGF21 (from UniProt Q9NSA1 29-209) (ligand)",4.7,4
"12-[[(1S)-4-[2-[2-[2-[2-[2-[2-[[(1S)-5-acetamido-1-carboxy-pentyl]amino]-2-oxo-ethoxy]ethoxy]ethylamino]-2-oxo-ethoxy]ethoxy]ethylamino]-1-carboxy-4-oxo-butyl]amino]-12-oxo-dodecanoic acid-Ala[Gln121,Leu168,Cys180]FGF21 (from UniProt Q9NSA1 29-209) (ligand)",3.4,8.4
"12-[[(1S)-4-[[(1S)-4-[2-[2-[2-[2-[2-[2-[[(1S)-5-acetamido-1-carboxy-pentyl]amino]-2-oxo-ethoxy]ethoxy]ethylamino]-2-oxo-ethoxy]ethoxy]ethylamino]-1-carboxy-4-oxo-butyl]amino]-1-carboxy-4-oxo-butyl]amino]-12-oxo-dodecanoic acid-Ala[Gln121,Leu168,Cys180]FGF21 (from UniProt Q9NSA1 29-209) (ligand)",6.1,7.9
"16-[[4-[[(1S)-4-[2-[2-[2-[2-[2-[2-(2-acetamidoethylamino)-2-oxo-ethoxy]ethoxy]ethylamino]-2-oxo-ethoxy]ethoxy]ethylamino]-1-carboxy-4-oxo-butyl]carbamoyl]cyclohexyl]methylamino]-16-oxo-hexadecanoic acid-Ala[Gln121,Leu168,Cys180]FGF21 (from UniProt Q9NSA1 29-209) (ligand)",3.2,3.5
"16-[[4-[[(1S)-4-[2-[2-[2-[2-[2-[2-[[(1S)-5-[(2-acetamido]-1-carboxy-pentyl]amino]-2-oxo-ethoxy]ethoxy]ethylamino]-2-oxo-ethoxy]ethoxy]ethylamino]-1-carboxy-4-oxo-butyl]carbamoyl]cyclohexyl]methylamino]-16-oxo-hexadecanoic acid-Ala[Gln121,Leu168,Cys180]FGF21 (from UniProt Q9NSA1 29-209) (ligand)",2.1,4
"16-[[(1S)-4-[2-[2-[2-[2-[2-[2-(2-acetamidoethylamino)-2-oxo-ethoxy]ethoxy]ethylamino]-2-oxo-ethoxy]ethoxy]ethylamino]-1-carboxy-4-oxo-butyl]amino]-16-oxo-hexadecanoic acid-Ala[Gln121,Leu168,Cys174]FGF21 (from UniProt Q9NSA1 29-209) (ligand)",4,2
"18-[[4-[[(1S)-4-[2-[2-[2-[2-[2-[2-[[(1S)-5-[(2-acetamido]-1-carboxy-pentyl]amino]-2-oxo-ethoxy]ethoxy]ethylamino]-2-oxo-ethoxy]ethoxy]ethylamino]-1-carboxy-4-oxo-butyl]carbamoyl]cyclohexyl]methylamino]-18-oxo-octadecanoic acid-Ala[Gln121,Leu168,Cys180]FGF21 (from UniProt Q9NSA1 29-209) (ligand)",14,4
"18-[[(1S)-4-[2-[2-[2-[2-[2-[2-(2-acetamidoethylamino)-2-oxo-ethoxy]ethoxy]ethylamino]-2-oxo-ethoxy]ethoxy]ethylamino]-1-carboxy-4-oxo-butyl]amino]-18-oxo-octadecanoic acid-Ala[Gln121,Leu168,Cys170]FGF21 (from UniProt Q9NSA1 29-209) (ligand)",20,1
"18-[[(1S)-4-[2-[2-[2-[2-[2-[2-(2-acetamidoethylamino)-2-oxo-ethoxy]ethoxy]ethylamino]-2-oxo-ethoxy]ethoxy]ethylamino]-1-carboxy-4-oxo-butyl]amino]-18-oxo-octadecanoic acid-Ala[Gln121,Leu168,Cys174]FGF21 (from UniProt Q9NSA1 29-209) (ligand)",1,1
"20-[[4-[[(1S)-4-[2-[2-[2-[2-[2-[2-[[(1S)-5-[(2-acetamido]-1-carboxy-pentyl]amino]-2-oxo-ethoxy]ethoxy]ethylamino]-2-oxo-ethoxy]ethoxy]ethylamino]-1-carboxy-4-oxo-butyl]carbamoyl]cyclohexyl]methylamino]-20-oxo-icosanoic acid-Ala[Gln121,Leu168,Cys180]FGF21 (from UniProt Q9NSA1 29-209) (ligand)",35.5,4
"20-[[(1S)-4-[2-[2-[2-[2-[2-[2-[[(1S)-5-acetamido-1-carboxy-pentyl]amino]-2-oxo-ethoxy]ethoxy]ethylamino]-2-oxo-ethoxy]ethoxy]ethylamino]-1-carboxy-4-oxo-butyl]amino]-20-oxo-icosanoic acid-Ala[Gln121,Leu168,Cys180]FGF21 (from UniProt Q9NSA1 29-209) (ligand)",52.5,6.1
"20-[[(1S)-4-[[(1S)-4-[2-[2-[2-[2-[2-[2-[[(1S)-5-acetamido-1-carboxy-pentyl]amino]-2-oxo-ethoxy]ethoxy]ethylamino]-2-oxo-ethoxy]ethoxy]ethylamino]-1-carboxy-4-oxo-butyl]amino]-1-carboxy-4-oxo-butyl]amino]-20-oxo-icosanoic acid-Ala[Gln121,Leu168,Cys180]FGF21 (from UniProt Q9NSA1 29-209) (ligand)",65.5,10.3
"(2S)-6-acetamido-2-[[2-[2-[2-[[2-[2-[2-[[(4S)-4-carboxy-4-(16-sulfohexadecanoylamino)butanoyl]amino]ethoxy]ethoxy]acetyl]amino]ethoxy]ethoxy]acetyl]amino]hexadecanoic acid-Ala[Gln121,Leu168,Cys180]FGF21 (from UniProt Q9NSA1 29-209) (ligand)",7.1,4.2
"Ala[Gln121,Cys167,Leu168,]FGF21 (from UniProt Q9NSA1 29-209) (ligand)",,4
"Ala[Gln121,Cys168]FGF21 (from UniProt Q9NSA1 29-209) (ligand)",,492
"Ala[Gln121,Leu168,Cys169]FGF21 (from UniProt Q9NSA1 29-209) (ligand)",,22
"Ala[Gln121,Leu168,Cys170]FGF21 (from UniProt Q9NSA1 29-209) (ligand)",,7
"Ala[Gln121,Leu168,Cys172]FGF21 (from UniProt Q9NSA1 29-209) (ligand)",,5
"Ala[Gln121,Leu168,Cys173]FGF21 (from UniProt Q9NSA1 29-209) (ligand)",,4
"Ala[Gln121,Leu168,Cys174]FGF21 (from UniProt Q9NSA1 29-209) (ligand)",,5
"Ala[Gln121,Leu168,Cys175]FGF21 (from UniProt Q9NSA1 29-209) (ligand)",,11
"Ala[Gln121,Leu168,Cys177]FGF21 (from UniProt Q9NSA1 29-209) (ligand)",,416
"S{Beta-168}-[2-[2-[[2-[2-[2-[[2-[2-[2-[[(4S)-4-carboxy-4-(13-carboxytridecanoyl-amino)butanoyl]amino]ethoxy]ethoxy]acetyl]amino]ethoxy]ethoxy]acetyl]amino]-ethylamino]-2-oxoethyl]-Ala[Gln121,Cys168]FGF21 (from UniProt Q9NSA1 29-209) (ligand)",4260,667
"S{Beta-169}-[2-[2-[[2-[2-[2-[[2-[2-[2-[[(4S)-4-carboxy-4-(15-carboxypentadecanoyl-amino)butanoyl]amino]ethoxy]ethoxy]acetyl]amino]ethoxy]ethoxy]acetyl]amino]-ethylamino]-2-oxoethyl]-Ala[Gln121,Leu168,Cys169]FGF21 (from UniProt Q9NSA1 29-209) (ligand)",20,25
